Data as given in paper PMC7990167, “An antibody targeting type III secretion system induces broad protection against Salmonella and Shigella infections” (PLoS Neglected Tropical Diseases, 2021).
Where “and” joins values, the source holds several entries; their conditions need not be identical. Identical values can stand only once.

Molecular target: T1, IpaD (wild type, Shigella flexneri) expressed on the surface of yeast cells (Shigella flexneri, gene synthesized …, UniProt P18013)
T1 construct: IpaD of Shigella flexneri; also called wild-type IpaD; needle tip protein of the Shigella type III secretion system
Assay: flow cytometry on cells; wild-type IpaD on the surface of yeast cells, increasing concentrations of the VHH, fluorescence by FACS; apparent KD, one site-specific binding model (PRISM)
Settings: one partner purified

T1 sequence (P18013 whole entry): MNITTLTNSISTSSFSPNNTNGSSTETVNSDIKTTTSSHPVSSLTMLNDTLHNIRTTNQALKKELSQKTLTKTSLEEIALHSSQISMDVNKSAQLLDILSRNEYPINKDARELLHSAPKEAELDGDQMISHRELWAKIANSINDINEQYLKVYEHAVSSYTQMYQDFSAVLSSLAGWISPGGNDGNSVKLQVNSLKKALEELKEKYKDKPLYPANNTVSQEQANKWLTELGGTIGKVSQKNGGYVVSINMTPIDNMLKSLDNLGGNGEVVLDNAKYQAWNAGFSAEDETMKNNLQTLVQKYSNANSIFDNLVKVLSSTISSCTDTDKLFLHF

B1: VHH-20ipaD (VHH)
VHH: QVQLVESGGGLVQAGGSLRLSCAVSGLEMQSHAIGWFRQAPGKEREGVSCINDDGSTTRYADSVKGRFTISRDNAKNTVYLQMNSLKPEDTAVYFCAAKSVWFCSVIRSHEFNSWGQGTQVTVSS
notes: the VHH chain is in the complex IpaD/VHH-20ipaD, PDB 5VXM; Monomeric fractions of the gel filtration were pooled; source: E. coli BL21, purified (TEV cleavage, HisTrap flow-through, gel filtration)
- Kd: 1.16 nM and 1.15 nM
